The text below walks through data of patent US8088892B2, “Inhibitors of proteins from the Rho-GEF family” (Centre National de la Recherche Scientifique (C.N.R.S.), priority 2002, dated 2012).

Test [1] concerns the target TrioGEFD2 (Homo sapiens, UniProt O75962). The experiment in a line: In vitro guanine nucleotide exchange (GEF) assay on RhoA. Also noted: using recombinant GST-TrioGEFD2 (a.a. 1848-2298), TrioDH2 (a.a. 1848-2096); made in house; key to in vitro GEF assay (inhibition): +++^2 and +^2 represent respectively a full and a partial (see FIG. 3) inhibitory effect; +++^2 and +^2 represent respectively a full and a partial (see FIG. 3) inhibitory effect; −−^2 represents a lack of inhibitory effect. It is filed as biochemical. Conditions: for Inhibition of TrioGEFD2 exchange activity on RhoA in vitro: 20-fold molar excess (8 μM) inhibitor, 0.4 μM GST-GEFD2, 0.3 μM [3H]GDP-RhoA, 15 min; for IC50: 0.4 μM GST-GEFD2, 0.3 μM RhoA, increasing amounts of GST-TRIAPα, read-out: apparent half-inhibitory concentration (inhibition of TrioGEFD2). On the procedure: For that purpose, aptamers, TrioGEFD2 and RhoA are expressed as GST-fusion proteins. RhoA is loaded with ^3H-GDP, and the release of GDP is followed after addition of GEFD2 in presence or in absence of the selected aptamers (as described in Debant et al., 1996).
A 20-fold molar excess (8 μM) of GST-aptamers TRIAPα, TRIAPβ (another TrioGEFD2 binding aptamer), TRIAPγ (another TrioGEFD2 binding aptamer) or the empty thioredoxine (Trx) were pre-incubated with 0.4 μM GST-GEFD2 (left side of FIG. 2A) or 0.4 μM GST-DH2 (right side of FIG. 2A), as indicated, before adding 0.3 μM of [^3H]GDP loaded GST-RhoA. The exchange activity was monitored by the decrease of [^3H]GDP bound-RhoA after 15 min (see Materials and Methods). The amount of [^3H]GDP bound-RhoA incubated without GEF (first bar on the left) was defined as 100% The values and errors bars were calculated from at least three independent experiments.
0.4 μM GST-GEFD2 were incubated with increasing amounts of GST-TRIAPα (grey bars) or GST (black bars), and the exchange assay was then performed on 0.3 μM RhoA, as described in A.
An in vitro guanine nucleotide exchange (GEF) assay was used to test whether the TrioGEFD2-binding aptamers could inhibit the catalytic activity of TrioGEFD2 towards RhoA. For this purpose, the aptamers TRIAPα, TRIAPβ and TRIAPγ (including the Trx gene) were excised from pEG202 as EcoRI/NotI fragments and cloned into pGEX4T1 EcoRI/NotI. The aptamers were then expressed and purified from bacteria as GST fusion proteins, using standard procedures (Smith and Johnson, 1988). GTPase-GST fusion proteins were prepared, loaded with [^3H]GDP and the guanine nucleotide release assays were performed as described (Debant et al., 1996), using recombinant GST-TrioGEFD2 (a.a. 1848-2298), TrioDH2 (a.a. 1848-2096). For each point, 0.3 μM GTPase was mixed with or without 0.4 μM GEF in presence of non-labeled GTP, and the reaction mix was filtered after 0 min and 15 mm reaction at 25° C. The catalytic activity of TrioGEFD2 was thus measured by the decrease of the GTPase-associated radioactivity. The results are expressed as the ratio “exchange after 15 min over exchange after 0 min” (% bound [^3H]GDP-RhoA). To measure the effect of the aptamers on the exchange activity, a 20-fold molar excess of GST-TRIAPs was pre-incubated with GEFD2 (or GEFD1) for 30 min on ice before the exchange assay was carried out. For each experiment, data were obtained in triplicate.

The target in test [2] is T1, TrioDH2 (a.a. 1848-2096) (Homo sapiens, UniProt O75962).
T1 construct: TrioDH2 (a.a. 1848-2096); expressed in transfected cells; host or cells: yeast
The test can be described thus: Binding specificity of aptamers in yeast. Conditions: growth on selective medium. The source says: Trx represents the thioredoxin protein with no inserted peptide.
In order to identify specific inhibitors of TrioGEFD2, a recently developed strategy was used, this strategy being derived from the yeast two hybrid system, where the cDNA library of preys has been replaced by a combinatorial library of short peptides (20 amino acids) in fusion with the bacterial protein thioredoxin A (Colas et al., 1996). This strategy has been successfully used to isolate specific inhibitors of the cyclin-dependent kinases (Cdks), the cell cycle transcription factor E2F, or the viral HPV16 E6 oncoprotein and HBEV core protein (Colas et al., 1996; Butz et al., 2001; Fabrizzio et al., 1999; Geyer et al., 2000). The TrioGEFD2 bait was constructed as follows: plasmid pMTHATrio1848-2298 (Bellanger et al., 1998) was digested with EcoRI/XhoI and the insert cloned in pEG202EcoRI/XhoI to generate the bait pEG202TroGEFD2. Yeast strain EGY048 (Colas et al., 1996) was transformed with pEG202TrioGEFD2 and subsequently with the library of Thioredoxin constrained aptamers according to standard procedures (Ito et al., 1983). After transformation, cells were allowed to recover for 4 hours in galactose containing medium before plating on selective galactose medium. Of the 2×10^6 screened colonies, those growing in the selective medium were recovered and retested for interaction. […]

Entries after “also recorded” stand apart in the source; their conditions may differ. Like-named read-outs stand apart in the source and are kept apart here.

Consider “AREGADGAICGYNLATLVMLGPSERVFCPLCEPCSSDIYELM [TRIPα, 42-amino acid peptide corresponding to the variable region of TRIAPα]”, for which, in test [1], the “Inhibition of TrioGEFD2 exchange activity on RhoA in vitro” value is reported as “inhibits TrioGEFD2 activity to a similar level than TRIAPα; also recorded: as potent as TRIAPα”.

B1: TRIAPα: aptamer of 154 amino acids: variable region of 42 amino acids inserted into the thioredoxin protein; tested as GST fusion (protein)
chain: MSDKIIHLTDDSFDTDVLKADGAILVDFWAEWCGPAREGADGAICGYNLATLVMLGPSERVFCPLCEPCSSDIYELMGPCKMIAPILDEIADEYQGKLTVAKLNIDQNPGTAPKYGIRGIPTLLLFKNGEVASATKVGALSKGQLKEFLDANLA
With B1, the IC50 in test [1] (listed as OST-TRIAPα) was about 4 µM. In test [1], the IC50 worked out at 4 µM and the “Inhibition of TrioGEFD2 exchange activity on RhoA in vitro” value was “potent inhibitor of TrioGEFD2 activity; also recorded: inhibits”. In addition, the “in vitro GEF assay (inhibition)” value in test [1] (RhoGEF TrioDH2PH2) is recorded as “+++^2”. The “Binding to the DH2 catalytic domain in yeast” value in test [2] is “also binds to the DH2 catalytic domain; also recorded: interacted with the DH2 catalytic domain alone”.
